Molecular target: purified hTMPRSS2 protein (human, UniProt O15393 1-492)
Assay: SPR

Chain of purified hTMPRSS2 protein (O15393 whole entry): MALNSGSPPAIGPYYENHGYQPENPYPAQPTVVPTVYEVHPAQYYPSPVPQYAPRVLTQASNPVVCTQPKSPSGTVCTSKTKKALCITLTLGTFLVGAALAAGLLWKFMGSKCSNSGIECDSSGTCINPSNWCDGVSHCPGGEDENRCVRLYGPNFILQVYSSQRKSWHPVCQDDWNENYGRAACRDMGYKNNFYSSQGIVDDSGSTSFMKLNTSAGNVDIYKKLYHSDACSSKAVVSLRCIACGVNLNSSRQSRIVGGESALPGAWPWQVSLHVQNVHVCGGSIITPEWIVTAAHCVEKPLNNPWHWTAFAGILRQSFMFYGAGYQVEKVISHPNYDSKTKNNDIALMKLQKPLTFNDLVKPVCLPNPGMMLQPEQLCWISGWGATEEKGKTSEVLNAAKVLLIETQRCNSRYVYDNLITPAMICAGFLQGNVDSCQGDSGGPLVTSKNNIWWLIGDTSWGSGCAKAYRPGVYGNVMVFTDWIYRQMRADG

B1: Spike protein (recombinant, analyte of the ternary SPR experiment) (natural protein)
chain: CQTTNGLNTSYSVCNGCVGYSENVFAVESGGYIPSDFAFNNWFLLTNTSSVVDGVVRSFQPLLLNCLWSVSGLRFTTGFVYFNGTGRGDCKGFSSDVLSDVIRYNLNFEENLRRGTILFKTSYGVVVFYCTNNTLVSGDAHIPFGTVLGNFYCFVNTTIGNETTSAFVGALPKTVREFVISRTGHFYINGYRYFTLGNVEAVNFNVTTAETTDFCTVALASYADVLVNVSQTSIANIIYCNSVINRLRCDQLSFDVPDGFYSTSPIQSVELPVSIVSLPVYHKHTFIVLYVDFKPQSGGGKCFNCYPAGVNITLANFNETKGPLCVDTSHFTTKYVAVYANVGRWSASINTGNCPFSFGKVNNFVKFGSVCFSLKDIPGGCAMPIVANWAYSKYYTIGSLYVSWSDGDGITGVPQPVEGVSSFMNVTLDKCTKYNIYDVSGVGVIRVSNDTFLNGITYTSTSGNLLGFKDVTKGTIYSITPCNPPDQLVVYQQAVVGAMLSENFTSYGFSNVVELPKFFYASNGTYNCTDAVLTYSSFGVCADGSIIAVQPRNVSYDSVSAIVTANLSIPSNWTTSVQVEYLQITSTPIVVDCSTYVCNGNVRCVELLKQYTSACKTIEDALRNSARLESADVSEMLTFDKKAFTLANVSSFGDYNLSSVIPSLPTSGSRVAGRSAIEDILFSKLVTSGLGTVDADYKKCTKGLSIADLACAQYYNGIMVLPGVADAERMAMYTGSLIGGIALGGLTSAVSIPFSLAIQARLNYVALQTDVLQENQKILAASFNKAMTNIVDAFTGVNDAITQTSQALQTVATALNKIQDVVNQQGNSLNHLTSQLRQNFQAISSSIQAIYDRLDTIQADQQVDRLITGRLAALNVFVSHTLTKYTEVRASRQLAQQKVNECVKSQSKRYGFCGNGTHIFSIVNAAPEGLVFLHTVLLPTQYKDVEAWSGLCVDGTNGYVLRQPNLALYKEGNYYRITSRIMFEPRIPTMADFVQIENCNVTFVNISRSELQTIVPEYIDVNKTLQELSYKLPNYTVPDLVVEQYNQTILNLTSEISTLENKSAELNYTVQKLQTLIDNINSTLVDLKWLNRVETYIKWP
B1 was tested, and the Kd was 1360 nM.

— article PMC12399569 (2025)
